Tested on: GUS mRNA
Assay: Comparative analysis of promoters by quantitative (Real Time) PCR of GUS mRNA
Format: cell-based, Yarrowia lipolytica
Conditions: for transcription activity relative to the TEF promoter: after 24 hrs in HGM, ATCC #76982 strains
Description: The transcriptional activities of the TEF, GPD, GPDIN, FBA and FBAIN promoters were determined in Y. lipolytica containing the pY5-30, PYZGDG, pDMW222, pDMW212 and pDMW214 constructs by quantitative PCR analyses. This required isolation of RNA and real time RT-PCR.
More specifically, Y. lipolytica ATCC #76982 strains containing pY5-30, PYZGDG, pDMW222, pDMW212 and pDMW214 were grown from single colonies in 6 mL of MM in 25 mL Erlenmeyer flasks for 16 hrs at 30° C. Each of the 6 mL starter cultures was then added to individual 500 mL flasks containing 140 mL HGM and incubated at 30° C. for 4 days. In each interval of 24 hrs, 1 mL of each culture was removed from each flask to measure the optical density, 27 mL was removed and used for a fluorometric GUS assay (as described above), and two aliquots of 1.5 mL were removed for RNA isolation. The culture for RNA isolation was centrifuged to produce a cell pellet.
The RNA was isolated from Yarrowia strains according to the modified Qiagen RNeasy mini protocol (Qiagen, San Diego, Calif.). Briefly, at each time point for each sample, 340 μL of Qiagen's buffer RLT was used to resuspend each of the two cell pellets. The buffer RLT/cell suspension mixture from each of the two tubes was combined in a bead beating tube (Bio101, San Diego, Calif.). About 500 μL of […] glass beads was added to the tube and the cells were disrupted by bead beating 2 min at setting 5 (BioPulverizer, Bio101 Company, San Diego, Calif.). The disrupted cells were then pelleted by centrifugation at 14,000 rpm for 1 min and 350 μl of the supernatent was transferred to a new microcentrifuge tube. Ethanol (350 μL of 70%) was added to each homogenized lysate. After gentle mixing, the entire sample was added to a RNeasy mini column in a 2 mL collection tube. The sample was centrifuged for 15 sec at 10,000 rpm. Buffer RW1 (350 μL) was added to the RNeasy mini column and the column was centrifuged for 15 sec at 10,000 rpm to wash the cells. The eluate was discarded. Qiagen's DNasel stock solution (10 μL) was added to 70 μl of Buffer RDD and gently mixed. This entire DNase solution was added to the RNeasy mini column and incubated at room temperature for 15 min. After the incubation step, 350 μL of Buffer RW1 was added to the mini column and the column was centrifuged for 15 sec at 10,000 rpm. The column was washed twice with 700 μL […]. RNase-free water (50 μL) was added to the column. The column was centrifuged for 1 min at 10,000 rpm to elute the RNA.
A two-step RT-PCR protocol was used, wherein total Yarrowia RNA was first converted to cDNA and then cDNA was analyzed using Real Time PCR. The conversion to cDNA was performed using Applied Biosystems' High Capacity cDNA Archive Kit (PN#4322171; Foster City, Calif.) and Molecular Biology Grade water from MediaTech, Inc. (PN# 46-000-Con; Holly Hill, Fla.). Total RNA from Yarrowia (100 ng) was converted to cDNA by combining it with 10 μl of RT buffer, 4 μl of 25×dNTPs, 10 μl 10× Random Hexamer primers, 5 μl Multiscribe Reverse Transcriptase and 0.005 μl RNase Inhibitor, and brought to a total reaction volume of 100 μl with water. The reactions were incubated in a thermocycler for 10 min at 25° C. followed by 2 hrs at 37° C. The cDNA was stored at −20° C. prior to Real Time analysis.
Real Time analysis was performed using the SYBR Green PCR Master Mix from Applied Biosystems (PN# 4309155). The Reverse Transcription reaction (2 μl) was added to 10 μl of 2×SYBR PCR Mix, 0.2 μl of 100 μM Forward and Reverse primers for either URA (i.e., primers YL-URA-16F and YL-URA-78R [SEQ ID NOs:183 and 184]) or GUS (i.e., primers GUS-767F and GUS-891R [SEQ ID NO:185 and 186]) and 7.2 μl water. The reactions were thermocycled for 10 min at 95° C. followed by 40 cycles of 95° C. for 5 sec and 60° C. for 1 min in an ABI 7900 Sequence Detection System instrument. Real time fluorescence data was collected during the 60° C. extension during each cycle. […]

B1: FBA: Y. lipolytica fructose-bisphosphate aldolase promoter, SEQ ID NO:161 (nucleic acid, listed as Yarrowia lipolytica)
DNA: TAAACAGTGTACGCAGTACTATAGAGGAACAATTGCCCCGGAGAAGACGGCCAGGCCGCCTAGATGACAAATTCAACAACTCACAGCTGACTTTCTGCCATTGCCACTAGGGGGGGCCTTTTTATATGGCCAAGCCAAGCTCTCCACGTCGGTTGGGCTGCACCCAACAATAAATGGGTAGGGTTGCACCAACAAAGGGATGGGATGGGGGGTAGAAGATACGAGGATAACGGGGCTCAATGGCACAAATAAGAACGAATACTGCCATTAAGACTCGTGATCCAGCGACTGACACCATTGCATCATCTAAGGGCCTCAAAACTACCTCGGAACTGCTGCGCTGATCTGGACACCACAGAGGTTCCGAGCACTTTAGGTTGCACCAAATGTCCCACCAGGTGCAGGCAGAAAACGCTGGAACAGCGTGTACAGTTTGTCTTAACAAAAAGTGAGGGCGCTGAGGTCGAGCAGGGTGGTGTGACTTGTTATAGCCTTTAGAGCTGCGAAAGCGCGTATGGATTTGGCTCATCAGGCCAGATTGAGGGTCTGTGGACACATGTCATGTTAGTGTACTTCAATCGCCCCCTGGATATAGCCCCGACAATAGGCCGTGGCCTCATTTTTTTGCCTTCCGCACATTTCCATTGCTCGGTACCCACACCTTGCTTCTCCTGCACTTGCCAACCTTAATACTGGTTTACATTGACCAACATCTTACAAGCGGGGGGCTTGTCTAGGGTATATATAAACAGTGGCTCTCCCAATCGGTTGCCAGTCTCTTTTTTCCTTTCTTTCCCCACAGATTCGAAATCTAAACTACACATCACACAATGCCTGTTACTGACGTCCTTAAGCGAAAGTCCGGTGTCATCGTCGGCGACGATGTCCGAGCCGTGAGTATCCACGACAAGATCAGTGTCGAGACGACGCGTTTTGTGTAATGACACAATCCGAAAGTCGCTAGCAACACACACTCTCTACACAAACTAACCCAGCTCTCC
modifications: misc_feature: Promoter FBA
transcription activity relative to the TEF promoter: about 3.3 times

B2: FBAIN: fructose-bisphosphate aldolase + intron promoter, SEQ ID NO:162 (nucleic acid, listed as Yarrowia lipolytica)
DNA: AAATTGCCCCGGAGAAGACGGCCAGGCCGCCTAGATGACAAATTCAACAACTCACAGCTGACTTTCTGCCATTGCCACTAGGGGGGGGCCTTTTTATATGGCCAAGCCAAGCTCTCCACGTCGGTTGGGCTGCACCCAACAATAAATGGGTAGGGTTGCACCAACAAAGGGATGGGATGGGGGGTAGAAGATACGAGGATAACGGGGCTCAATGGCACAAATAAGAACGAATACTGCCATTAAGACTCGTGATCCAGCGACTGACACCATTGCATCATCTAAGGGCCTCAAAACTACCTCGGAACTGCTGCGCTGATCTGGACACCACAGAGGTTCCGAGCACTTTAGGTTGCACCAAATGTCCCACCAGGTGCAGGCAGAAAACGCTGGAACAGCGTGTACAGTTTGTCTTAACAAAAAGTGAGGGCGCTGAGGTCGAGCAGGGTGGTGTGACTTGTTATAGCCTTTAGAGCTGCGAAAGCGCGTATGGATTTGGCTCATCAGGCCAGATTGAGGGTCTGTGGACACATGTCATGTTAGTGTACTTCAATCGCCCCCTGGATATAGCCCCGACAATAGGCCGTGGCCTCATTTTTTTGCCTTCCGCACATTTCCATTGCTCGGTACCCACACCTTGCTTCTCCTGCACTTGCCAACCTTAATACTGGTTTACATTGACCAACATCTTACAAGCGGGGGGCTTGTCTAGGGTATATATAAACAGTGGCTCTCCCAATCGGTTGCCAGTCTCTTTTTTCCTTTCTTTCCCCACAGATTCGAAATCTAAACTACACATCACACAATGCCTGTTACTGACGTCCTTAAGCGAAAGTCCGGTGTCATCGTCGGCGACGATGTCCGAGCCGTGAGTATCCACGACAAGATCAGTGTCGAGACGACGCGTTTTGTGTAATGACACAATCCGAAAGTCGCTAGCAACACACACTCTCTACACAAACTAACCCAGCTCTCC
modifications: misc_feature: Promoter FBAIN
transcription activity relative to the TEF promoter: ~6 times | transcriptional activity relative to the TEF promoter (final day of the 4 day experiment in HGM): about 3 times

From patent US7588931B2, “High arachidonic acid producing strains of Yarrowia lipolytica” (E. I. du Pont de Nemours and Company, priority 2004, dated 2009)
